Assay results taken from article PMC11677724, “Preclinical Study of a Dual-Target Molecular Probe Labeled with ^68Ga Targeting SSTR2 and FAP” (Pharmaceuticals, 2024).

How the values were obtained:
[1] = system: NCI-H727 tumor-bearing mice; assay: Micro PET imaging with ROI quantification and blocking, NCI-H727 tumor-bearing mice; assay type: in vivo, BALB/c nude mice
Method: (§1) Female BALB/c nude mice were obtained from Charles River Laboratories (Beijing, China). […] Approximately 5 × 10^6 cells were implanted into the right shoulder of each mouse to establish an NCI-H727 tumor model and Mc38 tumor model. Once the tumor volume reached 200–300 mm^3, the mice were used for imaging or biodistribution studies. All animal experiments were carried out in accordance with the National Institutes of Health Guidelines for the Care and Use of Laboratory Animals and were approved by the Animal Protection and Utilization Committee of the General Hospital of the PLA (Approval No.: S2023-209-1).
Each set of NCI-H727 tumor xenograft models (n = 3) was administered with [^68Ga]Ga-TATE-46, [^68Ga]Ga-DOTA-TATE, or [^68Ga]Ga-FAPI-46 (5.55–7.4 MBq, 150 µL/mouse) through the tail vein. Static PET scans were performed at 30 min, 1 h, 2 h, and 4 h after injection for 10 min each. In blocking studies, unlabeled precursors (FAPI-46, DOTA-TATE, FAPI-46 + DOTA-TATE, 10 mg/kg) were co-injected with [^68Ga]Ga-TATE-46. After image acquisition, the images were reconstructed using the three-dimensional ordered subset expectation maximization (3D-OSEM) algorithm and analyzed on the Recon/Avator-s-10 workstation. The percentage of injected dose per gram of tissue (%ID/g) was determined by delineating regions of interest.

[2] = system: NCI-H727 tumor-bearing mice; assay: Ex vivo biodistribution in NCI-H727 tumor-bearing mice; conditions: biodistribution in NCI-H727 tumor-bearing mice
Method: as §1
The NCI-H727 tumor-bearing mice were randomly assigned to four groups (with three mice in each group) and were injected with [^68Ga]Ga-TATE-46 (1.48 MBq, 100 µL). The mice were put to death at 0.5, 1, 2, and 4 h post-injection (p.i.). The tissues and organs of concern were gathered, weighed, and measured for radioactivity using a γ-counter. Additionally, [^68Ga]Ga-DOTA-TATE and [^68Ga]Ga-FAPI-46 were used as control groups in the biodistribution study of the NCI-H727 tumor model at 1 h p.i. After performing time decay correction, the radiotracer uptake in each tissue and organ was calculated as %ID/g.

[3] = system: NCI-H727 cells (SSTR2/FAP, positive); assay: Cell uptake and blocking in NCI-H727 cells; assay type: cell-based; conditions: 1 h
Method: The NCI-H727 and Mc38 cell lines were supplied by the Stem Cell Bank of the Chinese Academy of Sciences and were cultivated in Roswell Park Memorial Institute (RPMI-1640) medium with 10% (v/v) fetal bovine serum (FBS) at 37 °C with 5% CO2. All cells were cultured until they reached 80–90% confluence before undergoing trypsinization.
NCI-H727 cells were placed in a 24-well plate and cultivated for 24 h. The original medium was removed, and fresh RPMI-1640 was added. Then, 100 µL of [^68Ga]Ga-TATE-46, [^68Ga]Ga-DOTA-TATE, or [^68Ga]Ga-FAPI-46 (1.48×10^4 Bq) was added to each well, and the cells were incubated for 30 min, 1 h, 2 h, and 4 h (with three replicates for each time point). The culture medium was taken away, and the cells were washed twice with cold PBS (pH 7.4). Then, the cells were lysed using 0.5 mL of 1 M NaOH.
In blocking experiments, an excessive amount of unlabeled FAPI-46, DOTA-TATE, or FAPI-46 + DOTA-TATE (10 µg/well) was added as an inhibitor along with [^68Ga]Ga-TATE-46 to the cells. After 1 h, the cells were processed using the same method. Finally, the cell lysates were gathered, and the radioactivity was measured using a γ-counter. Mc38 cells were used as a negative control, with only [^68Ga]Ga-TATE-46 (1.48 × 10^4 Bq/well, 100 µL) added, and the rest of the procedure was followed as described above.

[4] = Pharmacokinetics, blood time-activity curves, two-compartment model; assay type: in vivo, BALB/c mice; conditions: female healthy BALB/c mice, n = 3 per group, 0.37 MBq tail vein, blood 2-120 min, γ-counter, two-compartment model (WinNonlin)
Method: Nine female healthy BALB/c mice were randomly divided into three groups (with three mice in each group) using a random number table. Each group was administered 100 µL of [^68Ga]Ga-TATE-46, [^68Ga]Ga-DOTA-TATE, or [^68Ga]Ga-FAPI-46 (0.37 MBq) via tail vein injection. Blood samples (5 µL × 3) were collected at 2, 5, 10, 15, 30, 60, 90, and 120 min post-injection via tail vein. The radioactivity in the blood was measured with a γ-counter and converted to blood radioactivity concentration (kBq/mL). The pharmacokinetic data (time–blood radioactivity concentration) were analyzed by using the two-compartment model in the pharmacokinetic software WinNonlin (Certara, Louis, MO, USA, 2018-06) to determine the distribution and clearance half-life parameters of the radiopharmaceuticals in the mice.

C[C@@H](O)[C@H](NC(=O)[C@@H]1CSSC[C@H](NC(=O)[C@@H](Cc2ccccc2)NC(=O)CCCCCNC(=O)CCCCCNC(=O)[C@H](Cc2ccccc2)NC(=O)C(CCC(=O)N[C@@H](Cc2ccccc2)C(=O)NCCCCCC(=O)NCCCCCC(=O)N2CCN(CCCN(C)c3ccc4nccc(C(=O)NCC(=O)N5CC(F)(F)C[C@H]5C#N)c4c3)CC2)NC(=O)CN2CCN(CC(=O)O)CCN(CC(=O)O)CCN(CC(=O)O)CC2)C(=O)N[C@@H](Cc2ccc(O)cc2)C(=O)N[C@H](Cc2c[nH]c3ccccc23)C(=O)N[C@@H](CCCCN)C(=O)N[C@@H]([C@@H](C)O)C(=O)N1)C(=O)O (stereo partly shown) [[^68Ga]Ga-TATE-46, metal not drawn]
tumor uptake in NCI-H727 tumors (PET ROI) compared with [68Ga]Ga-FAPI-46 and [68Ga]Ga-DOTA-TATE ([1]; 5.55–7.4 MBq, 30 min-4 h p.i., n = 3, p < 0.001): significantly higher
tumor uptake (PET) on co-injection with blocking agents DOTA-TATE, FAPI-46, or DOTA-TATE + FAPI-46 ([1]; blockers 10 μg/g each, NCI-H727 tumors, 1 h p.i., all p < 0.001): significantly reduced
tumor/muscle ratio [2]: 3–4
cellular uptake in NCI-H727 cells compared with [68Ga]Ga-DOTA-TATE and [68Ga]Ga-FAPI-46 ([3]; 1.48×10^4 Bq/well, 30 min, 2 h, 4 h, γ-counter, n = 3, all p < 0.001): significantly higher
cellular uptake in NCI-H727 cells on co-incubation with unlabeled TATE, FAPI-46, or TATE + FAPI-46 ([3]; blocker at 1000 times the molar amount (10 µg/well), all p < 0.01): significant reduction
distribution half-life [4]: 1.79 min
elimination half-life [4]: 37.75 min
